The record followed here is patent US20220396628A1.

The target of assay [1] is anti-CLL-1 CAR (chimeric antigen receptor presenting the anti-CLL-1 scFv), expressed on primary human T cells. In words: flow cytometry histogram; hybridoma clonal supernatant on anti-CLL-1 CAR-transduced primary human T cells, detected with FITC goat anti-rabbit F(ab')2; fraction of events in the CAR+ gate.
In assay [2] the target is control CAR 2, expressed on T cells. In words: flow cytometry histogram; hybridoma clonal supernatant on control CAR 2-expressing T cells, detected with FITC goat anti-rabbit F(ab')2; fraction of events in the CAR+ gate.
Assay [3] deals with control CAR3, expressed on T cells. Kind of assay: flow cytometry histogram; hybridoma clonal supernatant on control CAR 3-expressing T cells, detected with FITC goat anti-rabbit F(ab')2; fraction of events in the CAR+ gate. More on the design: unit not given here.

B1: KIP-10 Clone 15-2 (antibody, V domains shown)
VH: QEQLVESGGGLVKPGASLTLTCKASGFSFSVGYDMCWVRQAPGKGLEWIACIDTDSSSRTWNASWAKGRFTISKPSSTTVTLQMTSLTAADTATYFCARNDDTSGWGSKLWGPGTLVTVSS
VL: DVVMTQTPASVSEPVGGTVTIKCQASQTIGSALAWYQQKPGQPPKLLIYTASNLASGVSSRFKGSRSGTEFTLTISDLECADAATYYCQHTFYGTSYVDAFGGGTEVVVK
For the molecule B1, the CAR+ in assay [1] is 58; in assay [2], 0.063; in assay [3], 0.011.

B2: KIP-10 Clone 148-4 (antibody, V domains shown)
VH: QEQLEESGGDLVKPEGSLTLTCTASGFSFSGSFDVCWVRQAPGKGLEWIACIVVDSSDRTWYASWAKGRFTISKPSSTTVTLQMTSLTAADTATYFCARNDDTSGWGFNLWGPGTLVTVSS
VL: DVTMTQTPASVSEPVGGTVTIKCQASQSIGSALAWYQQKPGQPPKLLIWTASNLASGVSSRFKGSRSGTDFTLTISDLECADAATYYCQCTYYGSSYINAFGGGTEVVVK
Consider B2, for which the CAR+ in assay [1] was found to be 55.8; in assay [2] it was 0.021; in assay [3] it was 0.011.

B3: KIP-10 Clone 103-2 (antibody, V domains shown)
VH: QSVEESGGRLVTPGTPLTLTCTVSGFSLGSYYMSWVRQAPGKGLEWIGIIYQSGNTDYASWAKGRFTISKTSSTTVDLKMTSLTTEDTATYFCAREGYAGYVGYSYNIWGPGTLVTVSS
VL: AYDMTQTPASVSAAVGGTVSINCQASEDIESYLAWYQQRPGQPPKLLIYSASTLASGVSSRFKGSGSGTQFTLTISDLECADAATYYCQQGASSNDVEEPFGGGTEVVVK
For the molecule B3, the CAR+ in assay [1] stood at 55.9; in assay [2] it was 0.011.

B4: KIP-10 Clone 147-1 (antibody, V domains shown)
VH: QEQLEESGGDLVKPEGSLTLTCTASGFSFSGDYYMCWVRQAPGKGLEWIACIYVGSYIYSFYASWAKGRFTISRTSSTTVTLQMTSLTAADTATYFCARDPFATDSDVVSLWGPGTLVTVSS
VL: AVVLTQTPASVSAAVGGTVTINCQASQSISTVLAWYQQKPGQRPKLLIYWASTLASGVPSRFKGSGSGTQFTLTISGVECDDAATYYCAGYKSYSNDDGAFGGGTEVVVK
B4: the CAR+ in assay [1] stood at 57.7; in assay [2] it was 0.053; in assay [3], 0.011.

B5: KIP-10 Clone 180-2 (antibody, V domains shown)
VH: QSLEESGGGLVQPGGSLKLSCKASGFIFSDNYYMCWVRQAPGKGLELIACIYGGHIDTTYYASWVSGRFTSSKTSSTTVTLQLTSLTAADTATYFCARRTIYDDNDDYSYALHLWGPGTLVTVSS
VL: ALVMTQTPSSVSEPVGGTVTINCQASQSISNLLAWYQQKPGQPPKLLIYGASNLESGVPSRFKGSGSGTEYTLTISGVECADAATYYCQQGDSSSNLDNTFGGGTEVVVK
Consider B5, for which the CAR+ in assay [1] came to 57.7; in assay [3] it was 0.011.

B6: KIP-10 Clone 160-1 (antibody, V domains shown)
VH: QSLEESGGDLVKPGASLTLTCTASGFSFSSNYFVCWVRQAPGKGLEWVGCINPGSGRTYSASWAKGRFTISKSSSTTVTLQMTSLTAADTATYFCARDRPGSDDYYMRDLWGPGTLVTVSS
VL: DPVMTQTPASVSEPVGGTVTINCQASESIGSSLAWYQQKPGQPPKLLIYAASTLASGVSSRFKGSGSGTQFTLTISDLECADAATYYCQCSYYLNTYVGNPFGGGTEVVVK
On to B6, for which the CAR+ was 55.6 in assay [1], 0.021 in assay [2] and 0.011 in assay [3].

B7: KIP-10 Clone 63-2 (antibody, V domains shown)
VH: QQQLEESGGGLVKPGGTLTLTCKASGFSFSSDYDMCWVRQAPGKGLEWIACIYAGSSDNTYYATWAKGRFTISKTSSTTVTLQMTSLTAADTATYFCARDTADINFYFKLWGPGTLVTVSS
VL: DIVMTQTPASVSAAVGGTVTIKCQASESVSRWLAWYQQKPGQPPNLLIYSASTLASGVPSRFRGSGSGTEYTLTISDLECADAATYYCQGGYYSGGETYHNSFGGGTEVVVK
Consider B7, for which the CAR+ in assay [1] is 57.8; in assay [2] it was 0.021.
